Substrate in data set [1]: CCCC(=O)Oc1ccc([N+](=O)[O-])cc1
Nature of the data set: Initial rate of hydrolysis of p-nitrophenol butyrate (pNB), wild type. The data set is classed as biochemical, Candida antarctica. The conditions noted are these: other: wild type, 50 mM K-phosphate pH 7.5, room temperature. An excerpt: (§1) Kinetic analysis of protein variants: To examine the impact of circular permutation on catalysis eleven functional CALB variants with termini in or near the active site were selected for detailed kinetic characterization. The locations of the termini in these variants are shown on the structure of CALB in FIG. 6; the numbers correspond to the amino acid residue of the new terminus. Following overexpression in P. pastoris, the selected circularly permuted proteins were purified to homogeneity. The catalytic performance of these variants was determined in activity assays with two standard lipase substrates, measuring the initial rates of hydrolysis of the chromogenic substrate p-nitrophenol butyrate (pNB) and the fluorogenic substrate 6,8-difluoro-4-methylumbelliferyl (DiFMU) octanoate.
(§2) The overexpression and purification of wild type CALB was performed as described in Rotticci-Mulder, J. C. et al., Protein Expr Purif 2001, 21, (3), 386-92, which is hereby incorporated by reference. The same protocol was adopted for the isolation of circular permutation variants of CALB. Briefly, pPIC9-ca/B was linearized by SacI digestion and electroporated into P. pastoris cells (GS115). […]
(§3) Lipase activity was determined by measuring the initial hydrolysis rate of p-NB and DiFMU octanoate at room temperature on a Synergy-HT microtiterplate reader (Bio-Tek Instruments, Winooski, Vt.). Stock solutions of p-NB (200 mM) and DiFMU octanoate (3 mM) were prepared in DMSO. p-NB hydrolysis over a substrate range of 0-1.6 mM was measured in 50 mM K-phosphate buffer (pH 7.5) at 400 nm ( ? for p-NB=13260 M^1 cm^−1) as described in Bender, M. L. et al., J Am Chem Soc 1968, 90, (1), 201-7, which is hereby incorporated by reference. The rate of DiFMU octanoate hydrolysis was determined by measuring the DiFMU formation over a substrate range of 0-12 μM in 50 mM K-phosphate buffer (pH 7.0) at an excitation/emission wavelength 360/460 nm. Kinetic constants were calculated by fitting the initial rates to the Michaelis-Menten equation using the Origin® software (version 7; OriginLab Corporation).

Substrate in data set [2]: CCCCCCCC(=O)Oc1c(F)cc2c(C)cc(=O)oc2c1F
Nature of the data set: Initial rate of hydrolysis of DiFMU octanoate, wild type. The conditions noted are these: other: wild type, 50 mM K-phosphate pH 7.0, room temperature. The data set is classed as biochemical, Candida antarctica.
Description: as §1, §2, §3

B1: Candida antarctica lipase B (CALB), wild type, SEQ ID NO: 2, L1/P317 (Moesziomyces antarcticus) (protein)
chain: LPSGSDPAFSQPKSVLDAGLTCQGASPSSVSKPILLVPGTGTTGPQSFDSNWIPLSAQLGYTPCWISPPPFMLNDTQVNTEYMVNAITTLYAGSGNNKLPVLTWSQGGLVAQWGLTFFPSIRSKVDRLMAFAPDYKGTVLAGPLDALAVSAPSVWQQTTGSALTTALRNAGGLTQIVPTTNLYSATDEIVQPQVSNSPLDSSYLFNGKNVQAQAVCGPLFVIDHAGSLTSQFSYVVGRSALRSTTGQARSADYGITDCNPLPANDLTPEQKVAAAALLAPAAAAIVAGPKQNCEPDLMPYARPFAVGKRTCSGIVTP
As to B1, in data set [1], the Michaelis constant (Km) was 410 ± 40 µM, the kcat was determined as 305 ± 10 min⁻¹ and the specificity constant (kcat/Km) stood at 0.74 min⁻¹ µM⁻¹. Besides, in data set [2], the Km turned out to be 2.6 ± 0.3 µM, the kcat came out at 2 ± 0.1 min⁻¹ and the kcat/Km came to 0.8 min⁻¹ µM⁻¹.

The values are drawn from patent US8034579B2, “Proteins with enhanced functionality and methods of making novel proteins using circular permutation” (Emory University, priority 2005, dated 2011).
